Source: patent US20180186877A1 (NATIONAL CEREBRAL AND CARDIOVASCULAR CENTER, published 2018)

Target: Epitope-tagged recombinant LOX-1 protein (NM002543, aa 61-273, 6xHis); pcDNA4, Igk secretion signal; secreted … (UniProt P78380 61-273)
Test: SPR (Biacore), FVa immobilised on the chip, LOX-1 0-400 nM flowed; equilibrium (Req) analysis
Protocol: Note that the Igκ secretion signal was obtained by pSecTag/FRT/V5-HisTOPO (Invitrogen). […] The surface plasmon resonance was performed using Biacore (manufactured by GE Healthcare, Inc.).

Kd: 22.1 nM
B1: Human Factor Va (HCVA-0110, Haematologic Technologies Inc.) (other)
H chain: AQLRQFYVAAQGISWSYRPEPTNSSLNLSVTSFKKIVYREYEPYFKKEKPQSTISGLLGPTLYAEVGDIIKVHFKNKADKPLSIHPQGIRYSKLSEGASYLDHTFPAEKMDDAVAPGREYTYEWSISEDSGPTHDDPPCLTHIYYSHENLIEDFNSGLIGPLLICKKGTLTEGGTQKTFDKQIVLLFAVFDESKSWSQSSSLMYTVNGYVNGTMPDITVCAHDHISWHLLGMSSGPELFSIHFNGQVLEQNHHKVSAITLVSATSTTANMTVGPEGKWIISSLTPKHLQAGMQAYIDIKNCPKKTRNLKKITREQRRHMKRWEYFIAAEEVIWDYAPVIPANMDKKYRSQHLDNFSNQIGKHYKKVMYTQYEDESFTKHTVNPNMKEDGILGPIIRAQVRDTLKIVFKNMASRPYSIYPHGVTFSPYEDEVNSSFTSGRNNTMIRAVQPGETYTYKWNILEFDEPTENDAQCLTRPYYSDVDIMRDIASGLIGLLLICKSRSLDRRGIQRAADIEQQAVFAVFDENKSWYLEDNINKFCENPDEVKRDDPKFYESNIMSTINGYVPESITTLGFCFDDTVQWHFCSVGTQNEILTIHFTGHSFIYGKRHEDTLTLFPMRGESVTVTMDNVGTWMLTSMNSSPRSKKLRLKFRDVKCIPDDDEDSYEIFEPPESTVMATRKMHDRLEPEDEESDADYDYQNRLAAALGIR
L chain: SNNGNRRNYYIAAEEISWDYSEFVQRETDIEDSDDIPEDTTYKKVVFRKYLDSTFTKRDPRGEYEEHLGILGPIIRAEVDDVIQVRFKNLASRPYSLHAHGLSYEKSSEGKTYEDDSPEWFKEDNAVQPNSSYTYVWHATERSGPESPGSACRAWAYYSAVNPEKDIHSGLIGPLLICQKGILHKDSNMPMDMREFVLLFMTFDEKKSWYYEKKSRSSWRLTSSEMKKSHEFHAINGMIYSLPGLKMYEQEWVRLHLLNIGGSQDIHVVHFHGQTLLENGNKQHQLGVWPLLPGSFKTLEMKASKPGWWLLNTEVGENQRAGMQTPFLIMDRDCRMPMGLSTGIISDSQIKASEFLGYWEPRLARLNNGGSYNAWSVEKLAAEFASKPWIQVDMQKEVIITGIQTQGAKHYLKSCYTTEFYVAYSSNQINWQIFKGNSTRNVMYFNGNSDASTIKENQFDPPIVARYIRISPTRAYNRPTLRLELQGCEVNGCSTPLGMENGKIENKQITASSFKKSWWGDYWEPFRARLNAQGRVNAWQAKANNNKQWLEIDLLKIKKITAIITQGCKSLSSEMYVKSYTIHYSEQGVEWKPYRLKSSMVDKIFEGNTNTKGHVKNFFNPPIISRFIRVIPKTWNQSIALRLELFGCDIY
modifications: Two-chain, plasma-derived glycoprotein. The H and L chains are held together non-covalently through Ca2+. Glycosylation and tyrosine sulfation are not carried by the letters.
notes: also called FVa
